T1: FcγRIIa(R) extracellular domain, His-tagged (human, UniProt P12318 34-217)
T1 construct: extracellular domain; also called 2aR
T1 sequence: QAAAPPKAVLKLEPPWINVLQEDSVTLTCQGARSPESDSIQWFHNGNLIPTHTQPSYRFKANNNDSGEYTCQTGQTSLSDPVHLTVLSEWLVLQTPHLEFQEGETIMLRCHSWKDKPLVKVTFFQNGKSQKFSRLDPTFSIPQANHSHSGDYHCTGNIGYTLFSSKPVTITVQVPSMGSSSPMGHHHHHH

T2: FcγRIIa(H) extracellular domain, His-tagged (human, UniProt P12318 34-217)
T2 construct: extracellular domain; also called 2aH
T2 sequence: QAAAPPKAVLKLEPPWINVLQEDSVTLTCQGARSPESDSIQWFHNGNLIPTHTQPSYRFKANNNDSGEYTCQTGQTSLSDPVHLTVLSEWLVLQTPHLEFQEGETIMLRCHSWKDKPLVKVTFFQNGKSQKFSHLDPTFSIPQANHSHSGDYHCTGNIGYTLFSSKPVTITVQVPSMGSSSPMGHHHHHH

T3: FcγRIIb extracellular domain, His-tagged (human, UniProt P31994 43-217)
T3 construct: extracellular domain; also called 2b
T3 sequence: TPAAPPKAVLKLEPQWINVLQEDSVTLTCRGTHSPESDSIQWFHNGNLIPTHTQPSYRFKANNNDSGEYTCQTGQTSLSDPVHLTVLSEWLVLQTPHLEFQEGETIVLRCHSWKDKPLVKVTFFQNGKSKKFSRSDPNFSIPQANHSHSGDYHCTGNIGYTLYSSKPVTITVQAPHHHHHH


Legend:
Experiment in all cases: SPR, vs GpH7-A5/GpH7-B3/GpL16-k0 =100
[1] = target: T4, FcγRIa extracellular domain, His-tagged (human, UniProt P12314 16-292)
T4 construct: extracellular domain; also called 1a
T4 sequence (P12314 other isoform, or with tags, fused parts or gaps): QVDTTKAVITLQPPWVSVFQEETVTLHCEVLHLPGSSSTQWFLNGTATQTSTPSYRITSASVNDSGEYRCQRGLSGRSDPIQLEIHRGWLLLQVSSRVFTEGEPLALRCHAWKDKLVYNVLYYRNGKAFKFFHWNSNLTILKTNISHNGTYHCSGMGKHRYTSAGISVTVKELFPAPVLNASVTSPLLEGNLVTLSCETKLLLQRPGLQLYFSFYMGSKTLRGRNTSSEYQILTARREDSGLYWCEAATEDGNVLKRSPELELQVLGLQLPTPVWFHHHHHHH

[2] = target: T1, FcγRIIa(R) extracellular domain, …
[3] = target: T2, FcγRIIa(H) extracellular domain, …
[4] = target: T3, FcγRIIb extracellular domain, His-tagged
[5] = target: T5, FcγRIIIa extracellular domain, His-tagged (human, UniProt P08637 17-208)
T5 construct: extracellular domain; also called 3a
T5 sequence (P08637 other isoform, or with tags, fused parts or gaps): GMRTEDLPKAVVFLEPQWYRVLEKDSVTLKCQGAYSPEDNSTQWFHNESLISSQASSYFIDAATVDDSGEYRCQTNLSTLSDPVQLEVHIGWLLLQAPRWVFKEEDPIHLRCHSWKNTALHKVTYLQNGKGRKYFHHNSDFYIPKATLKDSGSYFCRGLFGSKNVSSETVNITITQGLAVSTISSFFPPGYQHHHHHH

| He/Con 1a [1] | He/Con 2aR [2] | He/Con 2aH [3] | He/Con 2b [4] | He/Con 3a [5] | Binder |
| --- | --- | --- | --- | --- | --- |
| 97.8 % of control | 83.4 % of control | 94.9 % of control | 75.8 % of control | 94.6 % of control | GpH7-A5/GpH7-B3 variant L235_03V/GpL16-k0 (antibody, human IgG1, kappa) heavy 1: not shown heavy 2: not shown light: DIVMTQSPLSLPVTPGEPASISCQASESLVHSNRNTYLHWYLQKPGQSPQLLIYKVSNRFSGVPDRFSGSGSGTDFTLKISRVEAEDVGVYYCSQNTHVPPTFGQGTKVEIERTVAAPSVFIFPPSDEQLKSGTASVVCLLNNFYPREAKVQWKVDNALQSGNSQESVTEQDSKDSTYSLSSTLTLSKADYEKHKVYACEVTHQGLSSPVTKSFNRGEC |
| 95.9 % of control | 152 % of control | 131 % of control | 168 % of control | 73.8 % of control | GpH7-A5/GpH7-B3 variant L235_20W/GpL16-k0 (antibody, human IgG1, kappa) heavy 1: not shown heavy 2: not shown light: DIVMTQSPLSLPVTPGEPASISCQASESLVHSNRNTYLHWYLQKPGQSPQLLIYKVSNRFSGVPDRFSGSGSGTDFTLKISRVEAEDVGVYYCSQNTHVPPTFGQGTKVEIERTVAAPSVFIFPPSDEQLKSGTASVVCLLNNFYPREAKVQWKVDNALQSGNSQESVTEQDSKDSTYSLSSTLTLSKADYEKHKVYACEVTHQGLSSPVTKSFNRGEC |
| 99 % of control | 140 % of control | 84.7 % of control | 224 % of control | 100 % of control | GpH7-A5/GpH7-B3 variant P238_09D/GpL16-k0 (antibody, human IgG1, kappa) heavy 1: not shown heavy 2: not shown light: DIVMTQSPLSLPVTPGEPASISCQASESLVHSNRNTYLHWYLQKPGQSPQLLIYKVSNRFSGVPDRFSGSGSGTDFTLKISRVEAEDVGVYYCSQNTHVPPTFGQGTKVEIERTVAAPSVFIFPPSDEQLKSGTASVVCLLNNFYPREAKVQWKVDNALQSGNSQESVTEQDSKDSTYSLSSTLTLSKADYEKHKVYACEVTHQGLSSPVTKSFNRGEC |
| 97.8 % of control | 74.6 % of control | 64.2 % of control | 62.4 % of control | 68.6 % of control | GpH7-A5/GpH7-B3 variant L235_05P/GpL16-k0 (antibody, human IgG1, kappa) heavy 1: not shown heavy 2: not shown light: DIVMTQSPLSLPVTPGEPASISCQASESLVHSNRNTYLHWYLQKPGQSPQLLIYKVSNRFSGVPDRFSGSGSGTDFTLKISRVEAEDVGVYYCSQNTHVPPTFGQGTKVEIERTVAAPSVFIFPPSDEQLKSGTASVVCLLNNFYPREAKVQWKVDNALQSGNSQESVTEQDSKDSTYSLSSTLTLSKADYEKHKVYACEVTHQGLSSPVTKSFNRGEC |
| 92.7 % of control | 110 % of control | 99.8 % of control | 87.8 % of control | 57.1 % of control | GpH7-A5/GpH7-B3 variant L235_16H/GpL16-k0 (antibody, human IgG1, kappa) heavy 1: not shown heavy 2: not shown light: DIVMTQSPLSLPVTPGEPASISCQASESLVHSNRNTYLHWYLQKPGQSPQLLIYKVSNRFSGVPDRFSGSGSGTDFTLKISRVEAEDVGVYYCSQNTHVPPTFGQGTKVEIERTVAAPSVFIFPPSDEQLKSGTASVVCLLNNFYPREAKVQWKVDNALQSGNSQESVTEQDSKDSTYSLSSTLTLSKADYEKHKVYACEVTHQGLSSPVTKSFNRGEC |
| 100 % of control | 132 % of control | 123 % of control | 135 % of control | 76.4 % of control | GpH7-A5/GpH7-B3 variant L235_04F/GpL16-k0 (antibody, human IgG1, kappa) heavy 1: not shown heavy 2: not shown light: DIVMTQSPLSLPVTPGEPASISCQASESLVHSNRNTYLHWYLQKPGQSPQLLIYKVSNRFSGVPDRFSGSGSGTDFTLKISRVEAEDVGVYYCSQNTHVPPTFGQGTKVEIERTVAAPSVFIFPPSDEQLKSGTASVVCLLNNFYPREAKVQWKVDNALQSGNSQESVTEQDSKDSTYSLSSTLTLSKADYEKHKVYACEVTHQGLSSPVTKSFNRGEC |
| 100 % of control | 150 % of control | 135 % of control | 170 % of control | 77.8 % of control | GpH7-A5/GpH7-B3 variant L235_15Y/GpL16-k0 (antibody, human IgG1, kappa) heavy 1: not shown heavy 2: not shown light: DIVMTQSPLSLPVTPGEPASISCQASESLVHSNRNTYLHWYLQKPGQSPQLLIYKVSNRFSGVPDRFSGSGSGTDFTLKISRVEAEDVGVYYCSQNTHVPPTFGQGTKVEIERTVAAPSVFIFPPSDEQLKSGTASVVCLLNNFYPREAKVQWKVDNALQSGNSQESVTEQDSKDSTYSLSSTLTLSKADYEKHKVYACEVTHQGLSSPVTKSFNRGEC |
| 96.9 % of control | 98.7 % of control | 80 % of control | 90.8 % of control | 85.6 % of control | GpH7-A5/GpH7-B3 variant L235_10E/GpL16-k0 (antibody, human IgG1, kappa) heavy 1: not shown heavy 2: not shown light: DIVMTQSPLSLPVTPGEPASISCQASESLVHSNRNTYLHWYLQKPGQSPQLLIYKVSNRFSGVPDRFSGSGSGTDFTLKISRVEAEDVGVYYCSQNTHVPPTFGQGTKVEIERTVAAPSVFIFPPSDEQLKSGTASVVCLLNNFYPREAKVQWKVDNALQSGNSQESVTEQDSKDSTYSLSSTLTLSKADYEKHKVYACEVTHQGLSSPVTKSFNRGEC |
| 103 % of control | 102 % of control | 99.5 % of control | 100 % of control | 92.8 % of control | GpH7-A5/GpH7-B3 variant L235_07I/GpL16-k0 (antibody, human IgG1, kappa) heavy 1: not shown heavy 2: not shown light: DIVMTQSPLSLPVTPGEPASISCQASESLVHSNRNTYLHWYLQKPGQSPQLLIYKVSNRFSGVPDRFSGSGSGTDFTLKISRVEAEDVGVYYCSQNTHVPPTFGQGTKVEIERTVAAPSVFIFPPSDEQLKSGTASVVCLLNNFYPREAKVQWKVDNALQSGNSQESVTEQDSKDSTYSLSSTLTLSKADYEKHKVYACEVTHQGLSSPVTKSFNRGEC |
| 87.6 % of control | 117 % of control | 84.3 % of control | 121 % of control | 88.5 % of control | GpH7-A5/GpH7-B3 variant L235_09D/GpL16-k0 (antibody, human IgG1, kappa) heavy 1: not shown heavy 2: not shown light: DIVMTQSPLSLPVTPGEPASISCQASESLVHSNRNTYLHWYLQKPGQSPQLLIYKVSNRFSGVPDRFSGSGSGTDFTLKISRVEAEDVGVYYCSQNTHVPPTFGQGTKVEIERTVAAPSVFIFPPSDEQLKSGTASVVCLLNNFYPREAKVQWKVDNALQSGNSQESVTEQDSKDSTYSLSSTLTLSKADYEKHKVYACEVTHQGLSSPVTKSFNRGEC |
| 95.2 % of control | 77.3 % of control | 73.5 % of control | 62.7 % of control | 65 % of control | GpH7-A5/GpH7-B3 variant L235_18N/GpL16-k0 (antibody, human IgG1, kappa) heavy 1: not shown heavy 2: not shown light: DIVMTQSPLSLPVTPGEPASISCQASESLVHSNRNTYLHWYLQKPGQSPQLLIYKVSNRFSGVPDRFSGSGSGTDFTLKISRVEAEDVGVYYCSQNTHVPPTFGQGTKVEIERTVAAPSVFIFPPSDEQLKSGTASVVCLLNNFYPREAKVQWKVDNALQSGNSQESVTEQDSKDSTYSLSSTLTLSKADYEKHKVYACEVTHQGLSSPVTKSFNRGEC |
| 93.5 % of control | 75.9 % of control | 73.5 % of control | 55 % of control | 67.2 % of control | GpH7-A5/GpH7-B3 variant L235_13S/GpL16-k0 (antibody, human IgG1, kappa) heavy 1: not shown heavy 2: not shown light: DIVMTQSPLSLPVTPGEPASISCQASESLVHSNRNTYLHWYLQKPGQSPQLLIYKVSNRFSGVPDRFSGSGSGTDFTLKISRVEAEDVGVYYCSQNTHVPPTFGQGTKVEIERTVAAPSVFIFPPSDEQLKSGTASVVCLLNNFYPREAKVQWKVDNALQSGNSQESVTEQDSKDSTYSLSSTLTLSKADYEKHKVYACEVTHQGLSSPVTKSFNRGEC |
| 91.6 % of control | 70.6 % of control | 79.5 % of control | 53.4 % of control | 73.2 % of control | GpH7-A5/GpH7-B3 variant L235_14T/GpL16-k0 (antibody, human IgG1, kappa) heavy 1: not shown heavy 2: not shown light: DIVMTQSPLSLPVTPGEPASISCQASESLVHSNRNTYLHWYLQKPGQSPQLLIYKVSNRFSGVPDRFSGSGSGTDFTLKISRVEAEDVGVYYCSQNTHVPPTFGQGTKVEIERTVAAPSVFIFPPSDEQLKSGTASVVCLLNNFYPREAKVQWKVDNALQSGNSQESVTEQDSKDSTYSLSSTLTLSKADYEKHKVYACEVTHQGLSSPVTKSFNRGEC |
| 104 % of control | 132 % of control | 81.8 % of control | 207 % of control | 71.3 % of control | GpH7-A5/GpH7-B3 variant P238_08L/GpL16-k0 (antibody, human IgG1, kappa) heavy 1: not shown heavy 2: not shown light: DIVMTQSPLSLPVTPGEPASISCQASESLVHSNRNTYLHWYLQKPGQSPQLLIYKVSNRFSGVPDRFSGSGSGTDFTLKISRVEAEDVGVYYCSQNTHVPPTFGQGTKVEIERTVAAPSVFIFPPSDEQLKSGTASVVCLLNNFYPREAKVQWKVDNALQSGNSQESVTEQDSKDSTYSLSSTLTLSKADYEKHKVYACEVTHQGLSSPVTKSFNRGEC |
| 101 % of control | 106 % of control | 96.3 % of control | 92.4 % of control | 75.6 % of control | GpH7-A5/GpH7-B3 variant L235_06M/GpL16-k0 (antibody, human IgG1, kappa) heavy 1: not shown heavy 2: not shown light: DIVMTQSPLSLPVTPGEPASISCQASESLVHSNRNTYLHWYLQKPGQSPQLLIYKVSNRFSGVPDRFSGSGSGTDFTLKISRVEAEDVGVYYCSQNTHVPPTFGQGTKVEIERTVAAPSVFIFPPSDEQLKSGTASVVCLLNNFYPREAKVQWKVDNALQSGNSQESVTEQDSKDSTYSLSSTLTLSKADYEKHKVYACEVTHQGLSSPVTKSFNRGEC |

From patent US20260167699A1 (Chugai, published 2026)
